In paper PMC8848936 (RNA, 2022):

Biological target: T1, Tsr1–TAP (S. cerevisiae, UniProt Q07381 1-788)
T1 sequence (looked up): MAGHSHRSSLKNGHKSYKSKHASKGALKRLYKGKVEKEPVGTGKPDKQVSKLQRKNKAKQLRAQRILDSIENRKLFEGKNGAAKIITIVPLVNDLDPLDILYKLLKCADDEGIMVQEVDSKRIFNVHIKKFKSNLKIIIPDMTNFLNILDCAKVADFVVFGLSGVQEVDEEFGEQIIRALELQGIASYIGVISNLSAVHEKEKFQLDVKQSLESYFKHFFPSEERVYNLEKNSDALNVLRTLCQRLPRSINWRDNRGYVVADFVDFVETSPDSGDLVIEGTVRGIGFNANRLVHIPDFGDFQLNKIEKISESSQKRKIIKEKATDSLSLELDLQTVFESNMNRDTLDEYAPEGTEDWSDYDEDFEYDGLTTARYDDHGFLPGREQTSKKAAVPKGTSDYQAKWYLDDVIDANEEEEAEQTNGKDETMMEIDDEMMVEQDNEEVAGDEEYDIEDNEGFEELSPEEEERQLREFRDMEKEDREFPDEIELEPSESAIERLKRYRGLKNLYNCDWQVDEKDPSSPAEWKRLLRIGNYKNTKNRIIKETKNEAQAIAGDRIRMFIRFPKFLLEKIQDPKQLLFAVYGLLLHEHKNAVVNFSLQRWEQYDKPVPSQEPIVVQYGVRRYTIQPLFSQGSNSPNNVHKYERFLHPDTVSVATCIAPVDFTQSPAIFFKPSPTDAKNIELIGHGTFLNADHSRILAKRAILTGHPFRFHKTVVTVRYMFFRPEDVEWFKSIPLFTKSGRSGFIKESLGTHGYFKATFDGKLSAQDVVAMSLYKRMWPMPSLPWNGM
Experiment: co-sedimentation

B1: recombinant Rio2 (Rio2-HA) (natural protein, yeast, UniProt P40160 1-425, looked up)
chain: MKLDTSHMRYLTTDDFRVLQAVEQGSRSHEVVPTPLIHQISGMRSQSGTNRAISDLAKLSLISKMRNVKYDGYRLTYNGIDYLALKTMLNRDTVYSVGNTIGVGKESDIYKVSDKNGNPRVMKIHRLGRTSFHSVRNNRDYLKKSNQGANWMHLSRLAANKEYQFMSMLYSKGFKVPEPFDNSRHIVVMELIEGYPMRRLRKHKNIPKLYSDLMCFIVDLANSGLIHCDFNEFNIMIKDKLEDENDCGFVVIDFPQCISIQHQDADYYFQRDVDCIRRFFKKKLKYEPKPDSSMLDTEGFGDGYKYAYPDFKRDVKRTDNLDELVQASGFSKKHPGDRGLETAVESMRNAVYNSDDDMSNDEAEEENGEGDYSEEDEYYDSELDNESSEDDSEDAQEEENERIIEALSSGVENLKMDKLGNYILE
binding result: binds
